Source: paper PMC5089960 (Angewandte Chemie (International ed. in English), 2016)

Molecular target: the molecule itself
Assay: crystal structure

B1: PsoE (enzyme, A. fumigatus)
chain: MVFGTLYTFPGDQCRTIAIKAVAKANGLDLDIRETPRTPDHLSISKLGKVPAFQGADSFKLFECMAIALYITSQNEQTTLLGKDKKEYAEIIKWMSFFNTEIVILMTQQLLPQLGVIPYDRDQVEFFANMTQRSVDVVEEYLQDRTFLVGDQLSLADLFCAGNISLGFQFFYGKAWRQQNPNVSRWYEMVCHQPIYAAVTDKFQLLDEPKLTNNPPEKKPETVPKNGAAVAIEATQA
- stoichiometry N: 2
